Reference: PMC9135449

Molecular target: T1, HP1043 (Helicobacter pylori 26695?) (UniProt O25684)
T1 sequence: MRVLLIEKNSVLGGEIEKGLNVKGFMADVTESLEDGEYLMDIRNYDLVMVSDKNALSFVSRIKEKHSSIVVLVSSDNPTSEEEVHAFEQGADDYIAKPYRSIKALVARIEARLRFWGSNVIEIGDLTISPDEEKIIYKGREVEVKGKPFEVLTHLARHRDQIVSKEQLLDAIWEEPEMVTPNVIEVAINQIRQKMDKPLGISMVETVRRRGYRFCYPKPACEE
Test: EMSA
Details: 10 mM Tris-HCl pH 7.5, 40 mM KCl, 100 ug/ml BSA, 1 mM DTT, 5% glycerol, 25 ul, room temperature 30 min; 6% native PAGE in 45 mM Tris/45 mM orthoboric acid …

Sequence: GCCAAAACGCCTAAAGCCACAATAACCTTTTTCATCGTTTGTCTCCTCTACTTATCAAAATGATCTTAAAATGATACAATTACAAGTTTAAGTTTTGCTTAAAAAATGAAGTGAAAATAAGAGAAATAAATATGATTTTATACATTCATATCCCCTTTTGTGAAAATAAATGCGGTTATTGCGCTTTCAA (double strand) [Php1227 190-bp promoter probe]
- binding: binds
